Target: T1, streptolysin O (SLO) secreted by Group A Streptococcus strain JRS4 (Streptococcus pyogenes JRS4 (serotype …, UniProt Q5XE40))
T1 construct: also called GAS pore-forming toxin; bacterial cytolysin
Assay: co-IP
Conditions: partners not purified

B1: STAND-HS1 (anti-SLO intrabody) (scFv, V domains shown)
VH: EVQLQESGPSLVKPSQTLSLTCSVTGDSITSGYWNWIRKFPGNKFEYMGYISYGDSTYYNPSLKSRISITRDTSKNQYYLQLNSVTTEDTATYYCARLGNDYNWYFDVWGAGTTVTVSS
VL: DIQMNQSPSSLSASLGDTITITCHASQNINVWLSWYQQKPGNIPKLLIFKASNLYTGVPSRFSGSGSGTGFTLTISSLQPEDIATYYCQQGQTYPLTFGGGTKL
notes: also called anti-SLO scFv; anti-SLO intracellular antibody; not shown: 3xFLAG, N-terminal, kept
  binding result: binds
